From PMC9663175, “Cryo-EM structures reveal the activation and substrate recognition mechanism of human enteropeptidase” (Nature Communications, 2022)
Numbering of substitutions follows the chain as printed. Numbers in names are those of the source.

B1: hEP light chain (peptidase domain, residues 785-1019), wild type (domain or fragment, human, UniProt P98073 785-1019, looked up)
chain: IVGGSNAKEGAWPWVVGLYYGGRLLCGASLVSSDWLVSAAHCVYGRNLEPSKWTAILGLHMKSNLTSPQTVPRLIDEIVINPHYNRRRKDNDIAMMHLEFKVNYTDYIQPICLPEENQVFPPGRNCSIAGWGTVVYQGTTANILQEADVPLLSNERCQQQMPEYNITENMICAGYEEGGIDSCQGDSGGPLMCQENNRWFLAGVTSFGYKCALPNRPGVYARVSRFTEWIQSFLH
modifications: N-linked glycans
notes: human enteropeptidase light chain, N-terminus Ile785 (IVGG) after trypsin cleavage; Stays linked to the heavy chain by the disulfide Cys772-Cys896; source: HEK293F, transfected, secreted, purified from supernatant (Ni-NTA) as the 182-1019 zymogen, then cleaved with trypsin
B2: hEP light chain (residues 785-1019) inhibited by nafamostat (domain or fragment, human, UniProt P98073 785-1019, looked up)
chain: B1 chain
modifications: Ser971 covalently bound to the reaction product of nafamostat; N-linked glycans
notes: human enteropeptidase light chain, N-terminus Ile785 after trypsin cleavage; Stays linked to the heavy chain by the disulfide Cys772-Cys896
B3: hEP^mut light chain (peptidase domain, residues 785-1019, H825A, D876A, S971A) (domain or fragment, human, UniProt P98073 785-1019, looked up)
chain: B1 chain with H41A, D92A, S187A
modifications: N-linked glycans
notes: human enteropeptidase light chain, N-terminus Ile785 after trypsin cleavage, catalytic triad mutated to Ala; The light chain of m1; also called light chain of hEP^mut

What follows are binders tested against T1, hEP heavy chain (residues 182-784 of human enteropeptidase, after trypsin activation) (human, UniProt P98073 182-784, N-linked glycans) (assay: cryo-EM structure; trypsin-activated two-chain hEP (residues 182-1019), heavy and light chains linked by a disulfide; wild type, catalytic-triad mutant, or wild type incubated with nafamostat). Conditions: both partners purified.
T1 construct: human enteropeptidase heavy chain of the 182-1019 construct (LDLR, CUB, MAM, CUB2, LDLR2, SRCR domains); C-terminal limit 784 follows from Ile785 as the new N-terminus of the light chain; Stays linked to the light chain by the disulfide Cys772-Cys896; source: HEK293F, transfected, secreted, purified from supernatant (Ni-NTA) as the 182-1019 zymogen, then cleaved with trypsin
T1 sequence (looked up): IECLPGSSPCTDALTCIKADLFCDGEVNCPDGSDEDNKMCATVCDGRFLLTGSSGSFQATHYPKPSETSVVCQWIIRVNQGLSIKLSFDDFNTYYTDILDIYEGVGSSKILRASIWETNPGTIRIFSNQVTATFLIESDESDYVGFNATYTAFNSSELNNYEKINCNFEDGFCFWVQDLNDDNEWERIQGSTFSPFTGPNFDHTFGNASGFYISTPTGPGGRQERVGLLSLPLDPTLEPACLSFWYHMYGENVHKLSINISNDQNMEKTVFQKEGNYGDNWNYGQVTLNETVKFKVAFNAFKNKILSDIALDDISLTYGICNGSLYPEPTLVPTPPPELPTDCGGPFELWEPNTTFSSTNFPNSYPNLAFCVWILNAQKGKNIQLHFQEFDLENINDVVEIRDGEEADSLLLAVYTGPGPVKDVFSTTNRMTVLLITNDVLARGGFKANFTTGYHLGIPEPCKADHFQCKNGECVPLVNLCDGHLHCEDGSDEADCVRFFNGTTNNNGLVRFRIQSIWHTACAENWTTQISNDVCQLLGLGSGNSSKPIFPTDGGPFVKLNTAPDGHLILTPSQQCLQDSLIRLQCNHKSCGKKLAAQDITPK

Binding result, binds:
B1
B2
B3
